Measured values taken from article PMC12441935, “De novo designed 3-helix bundle peptides and proteins with controlled topology and stability” (Chemical Science, 2025).

Target: the molecule itself
Assay: AUC; sedimentation velocity and sedimentation equilibrium of the individual peptides N and N′, 20 °C

## ELAALKEELAALKEETAALKYELAAL [apCCTri-N′]
  stoichiometry N: 3

## KLAALEKKLAALEKKTAALEYKLAAL [apCCTri-N]
  stoichiometry N: 3
